Columns and labels:
[1] = TAL activity temperature profile of purified enzyme; format: biochemical
Description: Six grams of cell pellet, from the 10 liter fermentation of DPD5154 was resuspended in 6.0 mL Buffer A (10 mM Tris-HCl, pH 8.0, 200 μM EDTA) containing one EDTA-free protease inhibitor tablet (Roche Biosciences, Palo Alto, Calif.), 1.0 μg/ml Leupeptin, 1.0 μg/ml Pepstatin, 40 μg/ml Bestatin 5.0 mM CA. Cells were lysed by two passes through a French Pressure Cell at 20,000 PSI, and clarified by centrifugation at 12,000×g for 20 minutes. To the clarified supernatant, 1.0% streptomycin sulfate was added, and the suspension was gently mixed for 15 minutes at 4° C. and then clarified by centrifugation at 12,000×g for 20 minutes. The supernatant was heated at 60° C. for 20 min, and centrifuged again at 12,000×g for 20 minutes. This clarified crude extract sample was loaded onto a Q Sepharose FF 16/10 anion exchange column equilibrated with buffer A in an Akta FPLC system (Amersham, GE Healthcare, Piscataway, N.J.), and eluted with 10 column volumes of gradient from Buffer A, to Buffer A containing 1.0 M NaCl. Five ml fractions were collected from the column and assayed for TAL activity as described above. The fractions containing TAL activity were pooled. To the pooled anion exchange fractions containing TAL activity, saturated (NH4)2SO4 (4.0M) was added to final 30% saturation. After centrifugation at 12,000 g for 20 minutes, additional saturated (NH4)2SO4 (4.0M) was added to the supernatant fraction to a final 50% saturation. The mixture was centrifuged again at 12,000 g for 20 minutes, and the supernatant was removed. […] The purity of the PcTAL protein in the fractions was analyzed by SDS-PAGE. The fractions containing TAL activity with high purity as determined by SDS-PAGE were pooled. […]
The in vitro enzymatic assay using the purified PcTAL was performed as a comparison to the whole cell assay. The temperature profile of the purified PcTAL enzyme (from Example 6) was measured at temperatures varying from 25° C. to 60° C. in 100 mM CAPS buffer, pH 10, containing 1.0 mM tyrosine. […]

[2] = Whole cell TAL activity temperature profile; format: cell-based, E. coli
Description: A fermentation run was performed as in Example 6 for strain DPD5154. The TAL activity of the strain was measured in a cell-based assay at different temperatures. The fermentation cell paste was resuspended in water, and diluted to OD600 of 3.0. Formation of pHCA was monitored in a 1.0 ml reaction in a UV grade disposable cuvette (VWR) for three minutes at λ315 nm, 35° C. with 0.03 OD600 of DPD5154 cells, in 100 mM CAPS, pH10 with 10 mM tyrosine. The pH value of the CAPS buffer was adjusted according to the corresponding assay temperature, which was varied from 25° C. to 60° C. The TAL activity was calculated using the following equation based on the assumption that 1.0 OD600 of E. coli cells is equivalent to 0.33 g/L dry cell weight (dcw). The extinction coefficient of pHCA at pH 10 at 315 nm had previously been experimentally determined to be 16,800 M^−1 cm^−1. One unit of enzyme activity is defined as the formation of 1.0 μM of pHCA product per minute reaction. The total TAL Activity (μM/min)=Initial Slope (/min)×[1,000,000 (μM/M)/16,800 M^−1 cm^−1]=Slope (/min)×59.52 (μM)

B1: PcTAL: thermostable tyrosine ammonia lyase (PAL/TAL) enzyme from Phanerochaete chrysosporium, SEQ ID NO:1 (protein, listed as Phanerochaete chrysosporium)
chain: MPSRIDYYTSSGNGYAQSRKSSAIYPASASTGHAAPSTERKPELLDKFVEAYDELQSYREGKPVIVDGHNLSIPAVAATARFGAAVVLDENPETHERVLQSRRVIVDKVSTQRSVYGVSTGFGGSADTRTSDPLQLGHALLQHQHVGVLPTQTESPLPALPLGDPLATTSMPEAWVRGAILIRMNSLIRGHSGVRWELIEKMGELLRENITPLVPLRGSISASGDLSPLSYIAGTLIGSPAIRVFDGPASYGARRILPSNIALANHGVAPIPLSSKEHLGILNGTAFSASVGALALNEAVHLSLLAQVCTAMGTEAMIGAVGSFDAFIHDTARPHPGQVEVARNVRTLLEDSQMAVKAEDEVHIAEDEGELRQDRYPLRTAAQFLGPQIEDILSAHETVTLECNSTTDNPLIDGETGTVHHGGNFQAMAVTNAMEKTRLAIHHIGKLLFAQATELINPMMNRGLPPNLAATDPSHNYFAKGVDIHLAAYVGELGFLASPVSSHIQSAEMHNQAVNSLALVSARYTISALDVLSLLTAAYLYVLCQALDLRAMHNDLQSSLSAIVRELLPKHFPSAAKRADALLPILERTIFRALNSSSSADCKARMVSVAASTTTPLVDFLSADAALASELANITAFRTELATRAADALTTLRTQYLEGARGAAPASKYLGKTRPVYEFVRVTLNVPMHGRENLHNFEMGPGVEDGIIGNNISTIYEAIRDGKMQNVVMQLVKSIKA
[1]; 55° C.
  TAL activity at 55° C.: 1479 U/g
[1]; 60° C.
  TAL activity at 60° C.: 1431 U/g
[1]; about 55° C. vs 25° C.
  maximum activity of purified enzyme relative to that at 25° C.: about 3 fold
[2]
  activity at 60° C. relative to that at 25° C. in whole cells: about 6 fold
